Assay [1] deals with Biotin-labeled KRAS-G12D protein (UniProt P01116-2 1-169, limits assumed, biotin label (site not stated); loaded with BODIPY-GDP). Description: cell-based or functional assay.
Assay [2] addresses KRAS-G12D in AsPC-1 cells (UniProt P01116). Description: cell-based or functional assay.

Substance “cyclo(Phe3Me-NMeA-3Pal-Nle-Phe2F-Nle-NMe3Pal-amBCP) (peptide)” came in with an SOS assay EC50 in assay [1] of 22.3 nM. In addition, the AlphaScreen @18 h, EC50 in assay [2] turned out to be 32300 nM.
The like results for “cyclo(FLac-NMeA-4F3Pal-Nle-Phe2F-Nle-NMeF-amBCP) (peptide)” were, in that order, 72.4 nM and 589 nM.
As to “cyclo(FLac-NMeA-PyrimAla-Nle-Phe2F-Nle-NMePhe3Me-amBCP) (peptide)”, the SOS assay EC50 in assay [1] came to 6.03 nM. In assay [2], this substance displayed an AlphaScreen @18 h, EC50 of 256 nM.
In assay [1], “cyclo(Phe4Me-NMeA-3Pal-Nle-Phe2F-Nle-NMe3Pal-amBCP) (peptide)” had an SOS assay EC50 of 91.1 nM. In assay [2], this substance yielded an AlphaScreen @18 h, EC50 of 37200 nM.
As to “cyclo(FLac-NMeA-PyrimAla-Nle-Phe2F-NleF-NMeF-amBCP) (peptide)”, the SOS assay EC50 in assay [1] turned out to be 10.1 nM. In assay [2], this substance registered an AlphaScreen @18 h, EC50 of 2330 nM.
The like results for “cyclo(FLac-NMeS-3Pal-Nle-Phe2F-Nle-NMe3Pal-amBCP) (peptide)” were, in that order, 466 nM and over 50800 nM.
The like results for “cyclo(FLac-NMeNvalmid-4CF33Pal-Nle-Phe2F-Nle-NMeF-amBCP) isomer 2 (peptide)” were, in that order, 62.8 nM and over 50800 nM.
The matching figures for “cyclo(FLac-NMeA-3Pal-Nle-Phe2F-Nle-NMeCha-amBCP) (peptide)”: 2940 nM and over 50800 nM.
Turning to “cyclo(FLac-NMeA-3Pal-Nle-Phe2F-Nva-NMe3Pal-amBCP) (peptide)”, the SOS assay EC50 in assay [1] was determined as 154 nM. The same substance registered an AlphaScreen @18 h, EC50 in assay [2] of over 50800 nM.
In assay [1], “cyclo(FLac-NMeA-3Pal-cBuA-TyrOMe-Ahp-NMeF-amBCP) (peptide)” yielded an SOS assay EC50 of 37.9 nM. Also, in assay [2], the AlphaScreen @18 h, EC50 was 886 nM.
In assay [1], “cyclo(FLac-NMeA-3Pal-Nle-Phe2F-Nle-NMe3Pal-amBCP) (peptide)” returned an SOS assay EC50 of 36 nM. In addition, the AlphaScreen @18 h, EC50 in assay [2] came to 7300 nM.
The like results for “cyclo(INal-R-Phe4CH2NH2-Nle-Y-Nle-NMeF-daMeC-C1Ac) (peptide)” were, in that order, 1460 nM and over 50800 nM.
The matching figures for “cyclo(FLac-NMeNvaF-PyrimAla-cPrA-Phe2F-hL-NMeF-amBCP) (peptide)”: 26 nM and 1230 nM.
“cyclo(FLac-NMeDabN3-PyrimAla-Nle-Phe2F-Nle-NMe3Pal-amBCP) (peptide)” returned an SOS assay EC50 in assay [1] of 80.9 nM. In assay [2], this substance showed an AlphaScreen @18 h, EC50 of 11600 nM.
The like results for “cyclo(FLac-NMeA-4F3Pal-Nle-Phe2F-Nle-NMe3Pal-amBCP) (peptide)” were, in that order, 18.7 nM and 11800 nM.
The matching figures for “cyclo(F-R-3Pal-cBuA-NvaOMe-Nle-NMeF-aMeC1-C1Ac (peptide)”: 4410 nM and over 50800 nM.
The like results for “cyclo(FLac-NMeNvalmid-PyrimAla-Nle-Phe2F-Nle-NMeF-amBCP) isomer 2 (peptide)” were, in that order, 25.3 nM and 11100 nM.
Substance “cyclo(FLac-NMeA-PyrimAla-Nle-Phe2F-Nle-NMe3Pal-amBCP) (peptide)” returned an SOS assay EC50 in assay [1] of 33.6 nM. The substance also registered an AlphaScreen @18 h, EC50 in assay [2] of 13400 nM.
The like results for “cyclo(FLac-NMeNvaF-3Pal-Nle-Phe2F-Nle-NMe3Pal-amBCP) (peptide)” were, in that order, 297 nM and 20700 nM.
The like results for “cyclo(FLac-NMeNvalmid-3Pal-Nle-Phe2F-Nle-NMeF-amBCP) (peptide)” were, in that order, 28.9 nM and 5160 nM.
The like results for “cyclo(FLac-NMeA-PyrimAla-Nle-Phe2F-Nle-NMePhe3F-amBCP) (peptide)” were, in that order, 12.2 nM and 734 nM.
The substance “cyclo(FLac-NMeDabN3-3Pal-Nle-F2FLac-Nle-NMe3Pal-amBCP) (peptide)” registered an SOS assay EC50 in assay [1] of 5590 nM. The same substance showed an AlphaScreen @18 h, EC50 in assay [2] of 3480 nM.
The matching figures for “cyclo(FLac-NMeA-PyrimAla-cPrA-Phe2F-hcPrA-NMeF-amBCP) (peptide)”: 2 nM and 615 nM.
The like results for “cyclo(FLac-NMeDabN3-4CF33Pal-Nle-Phe2F-Nle-NMe3Pal-amBCP) (peptide)” were, in that order, 435 nM and 6120 nM.
The like results for “cyclo(FLac-NMeA-PyrimAla-cPrA-3Pal2F-hL-NMeF-amBCP) (peptide)” were, in that order, 31 nM and 4180 nM.
Turning to “cyclo(FLac-NMeA-PyrimAla-NleF-Phe2F-Nle-NMeF-amBCP) (peptide)”, in assay [1], the SOS assay EC50 worked out at 2.43 nM. The substance also came in with an AlphaScreen @18 h, EC50 in assay [2] of 2030 nM.
The matching figures for “cyclo(FLac-NMeA-3Pal-Nle-Phe2F-Nle-NMeF-amBCP) (peptide)”: 50.3 nM and 1440 nM.
The matching figures for “cyclo(F-NMeA-3Pal-cBuA-TyrOMe-Ahp-NMeF-aMeC1-C1Ac) (peptide)”: 146 nM and over 50800 nM.
As to “cyclo(F-NMeDabN3-3Pal-NleLac-Phe2F-Nle-NMe3Pal-amBCP) (peptide)”, the SOS assay EC50 in assay [1] came to 3880 nM. The AlphaScreen @18 h, EC50 in assay [2] was over 50800 nM.
In the case of “cyclo(FLac-NMeA-PyrimAla-hL-Phe2F-Nle-NMe3Pal-amBCP) (peptide)”, in assay [1], the SOS assay EC50 was 228 nM. This substance returned an AlphaScreen @18 h, EC50 in assay [2] of over 50800 nM.
The matching figures for “cyclo(3Pal-NMeA-3Pal-Nle-Phe2F-Nle-NMe3Pal-amBCP) (peptide)”: 3060 nM and over 50800 nM.
The like results for “cyclo(FLac-NMeNle-3Pal-DabN3-Phe2F-Nle-NMe3Pal-amBCP) (peptide)” were, in that order, 3060 nM and 21700 nM.
The like results for “cyclo(FLac-NMeA-PyrimAla-Nle-2Pal6F-Nle-NMeF-amBCP) (peptide)” were, in that order, 559 nM and 48700 nM.
For “cyclo(FLac-NMeA-3Pal2F-Nle-Phe2F-Nle-NMe3Pal-amBCP) (peptide)”, the SOS assay EC50 in assay [1] was determined as 1450 nM. The AlphaScreen @18 h, EC50 in assay [2] turned out to be 50200 nM.
The like results for “cyclo(Phe4F-NMeA-3Pal-Nle-Phe2F-Nle-NMe3Pal-amBCP) (peptide)” were, in that order, 99.9 nM and 42800 nM.
The like results for “cyclo(FLac-NMeNvalmid-PyrimAla-Nle-F2FLac-Nle-NMe3Pal-amBCP) (peptide)” were, in that order, 1160 nM and over 50800 nM.
The matching figures for “cyclo(FLac-NMeA-PyrimAla-NvaF-Phe2F-hL-NMeF-amBCP) (peptide)”: 7.79 nM and 2260 nM.
“cyclo(FLac-NMeA-4F3Pal-Nle-Phe2F-Nva-NMeF-amBCP) (peptide)”: in assay [1], the SOS assay EC50 amounted to 997 nM. In assay [2], this substance came in with an AlphaScreen @18 h, EC50 of over 50800 nM.
The matching figures for “cyclo(FLac-NMeA-PyrimAla-cBuA-Phe2F-hL3F-NMeF-amBCP) (peptide)”: 1.87 nM and 674 nM.
The like results for “cyclo(FLac-NMeA-PyrimAla-cPrA-Phe2F-hL-NMeF-amBCP) (peptide)” were, in that order, 1.95 nM and 168 nM.
“cyclo(FLac-NMeA-PyrimAla-rF2Cba-Phe2F-Nle-NMe3Pal-amBCP) isomer 1 (peptide)” returned an SOS assay EC50 in assay [1] of 236 nM. The substance further had an AlphaScreen @18 h, EC50 in assay [2] of over 50800 nM.
The matching figures for “cyclo(TyrOMe-NMeA~3Pal-Nle-Phe2F-Nle-NMe3Pal-amBCP) (peptide)”: 756 nM and over 50800 nM.
As to “cyclo(FLac-NMeA-PyrimAla-Nle-Phe2F-Nle-NMeF-amBCP) (peptide)”, in assay [1], the SOS assay EC50 came to 17.4 nM. Moreover, the AlphaScreen @18 h, EC50 in assay [2] was determined as 590 nM.
The matching figures for “cyclo(F-DabN3~3Pal-cBuA-V-Nle-NMe3Pal-amBCP) (peptide)”: 6560 nM and over 50800 nM.
The like results for “cyclo(FLac-NMeNvalmid-PyrimAla-Nle-Phe2F-Nle-NMeF-amBCP) isomer 1 (peptide)” were, in that order, 494 nM and over 50800 nM.
The like results for “cyclo(FLac-NMeNvalmid-4F3Pal-Nle-Phe2F-Nle-NMeF-amBCP) isomer 1 (peptide)” were, in that order, 101 nM and over 50800 nM.
For the substance “cyclo(FLac-NMeA-PyrimAla-Nle-Phe2F-Nle-NMePhe4F-amBCP) (peptide)”, in assay [1], the SOS assay EC50 was found to be 12.5 nM. Also, the AlphaScreen @18 h, EC50 in assay [2] worked out at 994 nM.
“cyclo(FLac-NMeNvaF2-PyrimAla-cPrA-Phe2F-hL-NMeF-amBCP) (peptide)”: the SOS assay EC50 in assay [1] was 173 nM. The AlphaScreen @18 h, EC50 in assay [2] came out at 1770 nM.
The like results for “cyclo(FLac-NMeA-PyrimAla-cBuA-Phe2F-Nle3F2-NMeF-amBCP) (peptide)” were, in that order, 2.39 nM and 542 nM.
The matching figures for “cyclo(FLac-NMeA-PyrimAla-cPeA-Phe2F-hL-NMeF-amBCP) (peptide)”: 4.13 nM and 285 nM.
The like results for “cyclo(Y-NMeA-3Pal-Nle-Phe2F-Nle-NMe3Pal-amBCP) (peptide)” were, in that order, 440 nM and 46400 nM.
Consider “cyclo(F-R-3Pal-Nle-Phe2F-Nle-NMeF-aMeC1-C1Ac) (peptide)”, for which the SOS assay EC50 in assay [1] was 12.8 nM. The substance further gave an AlphaScreen @18 h, EC50 in assay [2] of over 50800 nM.
The like results for “cyclo(CPhe-NMeA-PyrimAla-cPrA-Phe2F-Nle3F2-NMeF-MeOximamBCP) isomer 1 (peptide)” were, in that order, 51 nM and 3400 nM.
The matching figures for “cyclo(FLac-NMeNvalmid-4CF33Pal-Nle-Phe2F-Nle-NMeF-amBCP) isomer 1 (peptide)”: 188 nM and over 50800 nM.
The like results for “cyclo(dF-R-Phe4Gn-Nle-TyrOMe-Nle-NMeF-c3amCblc) (peptide)” were, in that order, 17.3 nM and over 50800 nM.
